Measurements published in the supplement of paper PMC11908140.

B1: library; numbered along this chain (parent)
chain: MRKPRAAVGSGHRKQAASQEGRQKHAKNNSQAKPSACDGLARQPEEVVLQASVSSYHLFRDVAEVTAFRGSLLSWYDQEKRDLPWRRRAEDEMDLDRRAYAVWVSEVMLQQTQVATVINYYTGWMQKWPTLQDLASASLEEVNQLWAGLGYYSRGRRLQEGARKVVEELGGHMPRTAETLQQLLPGVGRYTAGAIASIAFGQATGVVDGNVARVLCRVRAIGADPSSTLVSQQLWGLAQQLVDPARPGDFNQAAMELGATVCTPQRPLCSQCPVESLCRARQRVEQEQLLASGSLSGSPDVEECAPNTGQCHLCLPPSEPWDQTLGVVNFPRKASRKPPREESSATCVLEQPGALGAQILLVQRPNSGLLAGLWEFPSVTWEPSEQLQRKALLQELQRWAGPLPATHLRHLGEVVHTFSHIKLTYQVYGLALEGQTPVTTVPPGARWLTQEEFHTAAVSTAMKKVFRVYQGQQPGTCMGSKRSQVSSPCSRKKPRMGQQVLDNFFRSHISTDAHSLNSAAQ

Variants of: B1
Assay: 8OG:A repair function score (normalized; synonymous = 0, nonsense = -1) (normalized log-likelihood score); higher = more repair activity (WT-like)
Conditions: with 8OG:A DNA repair reporter (GFP) in HEK-293 MUTYH KO cells
Summary of the method: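 Lentiviral MUTYH cDNA NNN codon-scan libraries were expressed in MUTYH knockout HEK-293 cells with 10 pg/ml doxycycline, and the cells received an 8OG:A GFP repair reporter together with mCherry. At 72 h, viable mCherry+ cells went into GFP+ (repair) or GFP− bins, three replicates per tile, before tile amplicons were sequenced. A repair function score was then built from per-tile Rosace fitness scores, anchored on the synonymous and nonsense distributions. Synonymous medians sat at 0 and nonsense at -1, and variants under 300 counts per million at the start were left out.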
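Note: cells sorted at 72 h after reporter transfection.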

Compared with MRKPRAAVGSGHRKQAASQEGRQKHAKNNSQAKPSACDGLARQPEEVVLQASVSSYHLFRDVAEVTAFRGSLLSWYDQEKRDLPWRRRAEDEMDLDRRAYAVWVSEVMLQQTQVATVINYYTGWMQKWPTLQDLASASLEEVNQLWAGLGYYSRGRRLQEGARKVVEELGGHMPRTAETLQQLLPGVGRYTAGAIASIAFGQATGVVDGNVARVLCRVRAIGADPSSTLVSQQLWGLAQQLVDPARPGDFNQAAMELGATVCTPQRPLCSQCPVESLCRARQRVEQEQLLASGSLSGSPDVEECAPNTGQCHRCLPPSEPWDQTLGVVNFPRKASRKPPREESSATCVLEQPGALGAQILLVQRPNSGLLAGLWEFPSVTWEPSEQLQRKALLQELQRWAGPLPATHLRHLGEVVHTFSHIKLTYQVYGLALEGQTPVTTVPPGARWLTQEEFHTAAVSTAMKKVFRVYQGQQPGTCMGSKRSQVSSPCSRKKPRMGQQVLDNFFRSHISTDAHSLNSAAQ [L313R], MRKPRAAVGSGHRKQAASQEGRQKHAKNNSQAKPSACDGLARQPEEVVLQASVSSYHLFRDVAEVTAFRGSLLSWYDQEKRDLPWRRRAEDEMDLDRRAYAVWVSEVMLQQTQVATVINYYTGWMQKWPTLQDLASASLEEVNQLWAGLGYYSRGRRLQEGARKVVEELGGHMPRTAETLQQLLPGVGRYTAGAIASIAFGQATGVVDGNVARVLCRVRAIGADPSSTLVSQQLWGLAQQLVDPARPGDFNQAAMELGATVCTPQRPLCSQCPVESLCRARQRVEQEQLLASGSLSGSPDVEECAPNTGQCHSCLPPSEPWDQTLGVVNFPRKASRKPPREESSATCVLEQPGALGAQILLVQRPNSGLLAGLWEFPSVTWEPSEQLQRKALLQELQRWAGPLPATHLRHLGEVVHTFSHIKLTYQVYGLALEGQTPVTTVPPGARWLTQEEFHTAAVSTAMKKVFRVYQGQQPGTCMGSKRSQVSSPCSRKKPRMGQQVLDNFFRSHISTDAHSLNSAAQ [L313S] is higher in “8OG:A repair function score” value: -0.425 for the first, -0.292 for the second.

Going from MRKPRAAVGSGHRKQAASQEGRQKHAKNNSQAKPSACDGLARQPEEVVLQASVSSYHLFRDVAEVTAFRGSLLSWYDQEKRDLPWRRRAEDEMDLDRRAYAVWVSEVMLQQTQVATVINYYTGWMQKWPTLQDLASASLEEVNQLWAGLGYYSRGRRLQEGARKVVEELGGHMPRTAETLQQLLPGVGRYTAGAIASIAFGQATGVVDGNVARVLCRVRAIGADPSSTLVSQQLWGLAQQLVDPARPGDFNQAAMELGATVCTPQRPLCSQCPVESLCRARQRVEQEQLLASGSLSGSPDVEECAPNTGQCHQCLPPSEPWDQTLGVVNFPRKASRKPPREESSATCVLEQPGALGAQILLVQRPNSGLLAGLWEFPSVTWEPSEQLQRKALLQELQRWAGPLPATHLRHLGEVVHTFSHIKLTYQVYGLALEGQTPVTTVPPGARWLTQEEFHTAAVSTAMKKVFRVYQGQQPGTCMGSKRSQVSSPCSRKKPRMGQQVLDNFFRSHISTDAHSLNSAAQ [L313Q] to MRKPRAAVGSGHRKQAASQEGRQKHAKNNSQAKPSACDGLARQPEEVVLQASVSSYHLFRDVAEVTAFRGSLLSWYDQEKRDLPWRRRAEDEMDLDRRAYAVWVSEVMLQQTQVATVINYYTGWMQKWPTLQDLASASLEEVNQLWAGLGYYSRGRRLQEGARKVVEELGGHMPRTAETLQQLLPGVGRYTAGAIASIAFGQATGVVDGNVARVLCRVRAIGADPSSTLVSQQLWGLAQQLVDPARPGDFNQAAMELGATVCTPQRPLCSQCPVESLCRARQRVEQEQLLASGSLSGSPDVEECAPNTGQCHVCLPPSEPWDQTLGVVNFPRKASRKPPREESSATCVLEQPGALGAQILLVQRPNSGLLAGLWEFPSVTWEPSEQLQRKALLQELQRWAGPLPATHLRHLGEVVHTFSHIKLTYQVYGLALEGQTPVTTVPPGARWLTQEEFHTAAVSTAMKKVFRVYQGQQPGTCMGSKRSQVSSPCSRKKPRMGQQVLDNFFRSHISTDAHSLNSAAQ [L313V], the “8OG:A repair function score” value rises from -0.328 to -0.213.

Going from MRKPRAAVGSGHRKQAASQEGRQKHAKNNSQAKPSACDGLARQPEEVVLQASVSSYHLFRDVAEVTAFRGSLLSWYDQEKRDLPWRRRAEDEMDLDRRAYAVWVSEVMLQQTQVATVINYYTGWMQKWPTLQDLASASLEEVNQLWAGLGYYSRGRRLQEGARKVVEELGGHMPRTAETLQQLLPGVGRYTAGAIASIAFGQATGVVDGNVARVLCRVRAIGADPSSTLVSQQLWGLAQQLVDPARPGDFNQAAMELGATVCTPQRPLCSQCPVESLCRARQRVEQEQLLASGSLSGSPDVEECAPNTGQCHPCLPPSEPWDQTLGVVNFPRKASRKPPREESSATCVLEQPGALGAQILLVQRPNSGLLAGLWEFPSVTWEPSEQLQRKALLQELQRWAGPLPATHLRHLGEVVHTFSHIKLTYQVYGLALEGQTPVTTVPPGARWLTQEEFHTAAVSTAMKKVFRVYQGQQPGTCMGSKRSQVSSPCSRKKPRMGQQVLDNFFRSHISTDAHSLNSAAQ [L313P] to MRKPRAAVGSGHRKQAASQEGRQKHAKNNSQAKPSACDGLARQPEEVVLQASVSSYHLFRDVAEVTAFRGSLLSWYDQEKRDLPWRRRAEDEMDLDRRAYAVWVSEVMLQQTQVATVINYYTGWMQKWPTLQDLASASLEEVNQLWAGLGYYSRGRRLQEGARKVVEELGGHMPRTAETLQQLLPGVGRYTAGAIASIAFGQATGVVDGNVARVLCRVRAIGADPSSTLVSQQLWGLAQQLVDPARPGDFNQAAMELGATVCTPQRPLCSQCPVESLCRARQRVEQEQLLASGSLSGSPDVEECAPNTGQCHTCLPPSEPWDQTLGVVNFPRKASRKPPREESSATCVLEQPGALGAQILLVQRPNSGLLAGLWEFPSVTWEPSEQLQRKALLQELQRWAGPLPATHLRHLGEVVHTFSHIKLTYQVYGLALEGQTPVTTVPPGARWLTQEEFHTAAVSTAMKKVFRVYQGQQPGTCMGSKRSQVSSPCSRKKPRMGQQVLDNFFRSHISTDAHSLNSAAQ [L313T], the “8OG:A repair function score” value rises from -0.504 to -0.317.
